The values below come from doi:10.1101/2025.04.08.647777 (bioRxiv, 2025).

In the assay the target is MBP-DIC1 (UniProt O14576 1-645). The experiment in a line: pull-down.
Sequence of MBP-DIC1 (O14576 whole entry): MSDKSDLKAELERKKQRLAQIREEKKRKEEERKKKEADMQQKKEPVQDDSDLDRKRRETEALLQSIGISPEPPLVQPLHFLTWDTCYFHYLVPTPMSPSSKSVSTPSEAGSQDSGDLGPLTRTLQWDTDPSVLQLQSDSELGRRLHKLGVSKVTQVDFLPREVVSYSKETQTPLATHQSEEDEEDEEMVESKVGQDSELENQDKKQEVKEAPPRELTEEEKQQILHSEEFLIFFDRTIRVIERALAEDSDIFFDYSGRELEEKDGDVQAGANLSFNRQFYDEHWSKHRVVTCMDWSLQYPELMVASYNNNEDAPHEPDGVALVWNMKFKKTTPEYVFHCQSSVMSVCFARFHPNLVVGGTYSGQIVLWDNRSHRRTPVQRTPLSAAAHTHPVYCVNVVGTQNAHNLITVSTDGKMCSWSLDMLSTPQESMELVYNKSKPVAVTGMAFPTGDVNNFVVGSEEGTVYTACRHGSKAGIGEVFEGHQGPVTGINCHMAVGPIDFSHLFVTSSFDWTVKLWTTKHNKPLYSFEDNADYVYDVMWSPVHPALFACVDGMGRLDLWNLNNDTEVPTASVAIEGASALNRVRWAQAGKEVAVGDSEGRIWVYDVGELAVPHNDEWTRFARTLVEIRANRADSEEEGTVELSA

B1: GST-CSN7A (natural protein)
chain: MSAEVKVTGQNQEQFLLLAKSAKGAALATLIHQVLEAPGVYVFGELLDMPNVRELAESDFASTFRLLTVFAYGTYADYLAEARNLPPLTEAQKNKLRHLSVVTLAAKVKCIPYAVLLEALALRNVRQLEDLVIEAVYADVLRGSLDQRNQRLEVDYSIGRDIQRQDLSAIARTLQEWCVGCEVVLSGIEEQVSRANQHKEQQLGLKQQIESEVANLKKTIKVTTAAAAAATSQDPEQHLTELREPAPGTNQRQPSKKASKGKGLRGSAKIWSKSN
As to B1, the binding result was “binds”.
